Results taken from publication PMC3443260.
pKd: −log10 of the molar value. Like-named read-outs stand apart in the source and are kept apart here.

How the values were obtained:
[1] = target: CI-MPR C-terminal DXXLL peptide (Homo sapiens) (UniProt P11717); assay: ITC; conditions: cited from earlier work
[2] = target: Flag-tagged mouse GGA2 (mouse) (UniProt Q6P5E6); assay: BLI
[3] = target: Flag-tagged mouse GGA2 (mouse) (UniProt Q6P5E6); assay: BLI; remark: listed apart in the source

Flag-tagged mouse GGA2 (mouse), sequence (Q6P5E6 whole entry): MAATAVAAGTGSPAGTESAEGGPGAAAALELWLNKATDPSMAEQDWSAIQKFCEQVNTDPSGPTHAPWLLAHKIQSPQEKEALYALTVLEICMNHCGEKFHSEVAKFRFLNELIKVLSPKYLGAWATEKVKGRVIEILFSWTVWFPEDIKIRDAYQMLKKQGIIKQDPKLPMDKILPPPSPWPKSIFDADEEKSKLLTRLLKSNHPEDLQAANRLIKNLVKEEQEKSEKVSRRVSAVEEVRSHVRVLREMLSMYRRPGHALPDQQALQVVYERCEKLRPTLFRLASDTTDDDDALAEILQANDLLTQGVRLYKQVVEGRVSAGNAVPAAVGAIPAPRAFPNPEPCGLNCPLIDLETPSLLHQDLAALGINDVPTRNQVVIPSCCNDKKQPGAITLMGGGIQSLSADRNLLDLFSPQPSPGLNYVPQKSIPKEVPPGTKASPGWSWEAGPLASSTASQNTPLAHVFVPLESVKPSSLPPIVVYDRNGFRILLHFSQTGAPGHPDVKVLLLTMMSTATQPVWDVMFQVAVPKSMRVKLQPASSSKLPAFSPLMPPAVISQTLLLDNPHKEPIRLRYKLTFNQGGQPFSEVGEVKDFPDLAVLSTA
GGA2 VHS, sequence (Q9UJY4 30-166): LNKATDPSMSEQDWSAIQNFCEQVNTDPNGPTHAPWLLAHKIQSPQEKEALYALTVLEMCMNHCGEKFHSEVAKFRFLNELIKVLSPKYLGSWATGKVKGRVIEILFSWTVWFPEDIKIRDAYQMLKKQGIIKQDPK

pKd [2] | koff [2] [s⁻¹] | pKd [3] | Substance | pKd [1]
 |  |  | GGA2 VHS (from UniProt Q9UJY4) | 5.15
6.82 | 0.0052 |  | MBP-LRP9 30mer containing both DXXLL motifs (peptide) | 
6.55 | 0.0059 | 6.42 | MBP-LRP9 30mer with the C-terminal DXXLL motif mutated to AXXAA (peptide) | 
